Measured values from patent US20100041597A1, “PEPTIDES TARGETED TO PROTEIN KINASE C ISOFORMS AND USES THEREOF” (priority 2005, published 2010).

Legend:
Assay in all cases: Competitive binding assay using cell extracts (Western blot)
[1] = target: PKC-βI (Homo sapiens, UniProt P05771); parameters: cytoplasmic extracts from different cell lines expressing appropriate PKC isoforms; endogenous in cells; host or cells: H661, MDAMB231, LS180, T24; key to Affinity for PKC isoform βI: —: no detectable affinity; Low to very low affinity at 10X or 20X or both PRE concentrations in at least one cell line in the cell extract assay; Low affinity in purified isoform assay.; Moderate affinity at 10X or 20X or both PRE concentrations in at least one cell line in the cell extract assay.; High affinity at 10X or 20X or both PRE concentrations in at least one cell line in the cell extract assay; High affinity in purified isoform assay; details: for Affinity for PKC isoform βI: Cell extract, PRE at 10X, 20X antibody concentration, Table 20
Chain of PKC-βI (P05771 2-671): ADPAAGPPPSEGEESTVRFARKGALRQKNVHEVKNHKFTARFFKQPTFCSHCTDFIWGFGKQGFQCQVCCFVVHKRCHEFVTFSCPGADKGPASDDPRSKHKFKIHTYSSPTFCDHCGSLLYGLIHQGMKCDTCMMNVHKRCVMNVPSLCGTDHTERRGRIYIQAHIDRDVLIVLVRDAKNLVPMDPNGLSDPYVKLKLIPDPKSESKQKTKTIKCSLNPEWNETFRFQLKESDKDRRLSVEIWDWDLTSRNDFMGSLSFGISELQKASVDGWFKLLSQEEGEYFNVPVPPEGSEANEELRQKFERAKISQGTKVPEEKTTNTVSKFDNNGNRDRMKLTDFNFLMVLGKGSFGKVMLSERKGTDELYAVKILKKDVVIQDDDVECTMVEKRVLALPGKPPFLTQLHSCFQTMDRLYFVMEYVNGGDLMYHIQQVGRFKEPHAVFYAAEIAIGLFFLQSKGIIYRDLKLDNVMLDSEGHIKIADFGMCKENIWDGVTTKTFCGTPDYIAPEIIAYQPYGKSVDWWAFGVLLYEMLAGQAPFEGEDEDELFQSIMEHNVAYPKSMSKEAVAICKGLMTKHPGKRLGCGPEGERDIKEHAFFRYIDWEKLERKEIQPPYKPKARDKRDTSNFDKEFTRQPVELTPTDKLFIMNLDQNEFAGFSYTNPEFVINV
Procedure: (§1) Binding efficiency and specificity of the peptides PRE 2, 3, 4, 5, 6, 7, 8, 9, 10, 11, 12 and 13 (see Table 3) was also tested using cytoplasmic extracts from different cell lines expressing appropriate PKC isoforms as described for Example 1. Briefly, the protein cytoplasmic extracts were separated by electrophoresis and transferred onto nitrocellulose membranes by standard Western blotting procedures. The bands on the Western blots were detected with matching primary antibodies and alkaline phosphatase conjugated secondary antibody. The bands were then scanned and the relative density measurements obtained.
(§2) This procedure to assess the binding characteristics of the PREs is based on competition binding of the PRE with the primary anti-isoform PKC specific antibodies. The lower the measured band density, the greater the binding of the PRE to the PKC isoform. The PREs were added at 10 and 20 times (10×, 20×) the primary antibody concentration, according to classical competition between antigenic peptide and primary antibody. The following cell lines (obtained from the ATCC) were used: H661—NCI human lung carcinoma NSCLC; MDAMB231—human highly invasive breast cancer cell line from pleural effusion; LS180—human colon adenocarcinoma; LnCAP—human prostate adenocarcinoma; CCD16Lu—human lung fibroblasts; Du145—human prostate carcinoma brain metastasis, and T24—human bladder carcinoma.
(§3) In these cases, the 20× band density figures relative to control and 10× values were reliable.

[2] = target: T1, PKC-ε (Homo sapiens, UniProt Q02156); parameters: cytoplasmic extracts from different cell lines expressing appropriate PKC isoforms; endogenous in cells; host or cells: CCD16Lu, LnCAP, Du145, MDAMB231, LS180; key: —: no detectable affinity; Low to very low affinity at 10X or 20X or both PRE concentrations in at least one cell line in the cell extract assay; Low affinity in purified isoform assay.; Moderate affinity at 10X or 20X or both PRE concentrations in at least one cell line in the cell extract assay.; High affinity at 10X or 20X or both PRE concentrations in at least one cell line in the cell extract assay; High affinity in purified isoform assay; details: Cell extract; PRE at 10X, 20X antibody concentration; Table 20
T1 sequence (Q02156 1-737): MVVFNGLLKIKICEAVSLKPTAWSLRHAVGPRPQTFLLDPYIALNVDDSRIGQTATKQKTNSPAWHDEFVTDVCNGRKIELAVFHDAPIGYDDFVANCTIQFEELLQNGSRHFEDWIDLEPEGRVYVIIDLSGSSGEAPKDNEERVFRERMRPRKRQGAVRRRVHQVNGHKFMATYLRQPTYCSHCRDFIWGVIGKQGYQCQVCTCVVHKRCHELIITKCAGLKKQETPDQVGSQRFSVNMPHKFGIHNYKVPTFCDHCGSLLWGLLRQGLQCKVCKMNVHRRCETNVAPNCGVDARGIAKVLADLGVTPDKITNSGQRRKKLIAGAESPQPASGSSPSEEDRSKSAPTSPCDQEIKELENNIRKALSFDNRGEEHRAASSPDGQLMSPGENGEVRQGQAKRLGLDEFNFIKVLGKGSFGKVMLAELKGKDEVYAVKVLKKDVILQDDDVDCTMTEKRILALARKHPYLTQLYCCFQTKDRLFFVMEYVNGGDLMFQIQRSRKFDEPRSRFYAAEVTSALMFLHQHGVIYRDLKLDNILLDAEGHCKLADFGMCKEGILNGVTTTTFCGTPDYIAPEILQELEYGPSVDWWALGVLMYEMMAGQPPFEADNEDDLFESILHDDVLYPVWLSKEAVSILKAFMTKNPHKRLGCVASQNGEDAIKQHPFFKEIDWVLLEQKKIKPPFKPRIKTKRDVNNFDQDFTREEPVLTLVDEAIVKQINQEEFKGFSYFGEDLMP
Procedure: as §1, §2, §3

[3] = target: T2, PKC-ζ (Homo sapiens, UniProt Q05513); parameters: cytoplasmic extracts from different cell lines expressing appropriate PKC isoforms; endogenous in cells; host or cells: MDAMB231, LnCAP, Du145, H661, CCD16Lu (human, from ATCC); key: —: no detectable affinity; Low to very low affinity at 10X or 20X or both PRE concentrations in at least one cell line in the cell extract assay; Low affinity in purified isoform assay.; Moderate affinity at 10X or 20X or both PRE concentrations in at least one cell line in the cell extract assay.; High affinity at 10X or 20X or both PRE concentrations in at least one cell line in the cell extract assay; High affinity in purified isoform assay; details: Cell extract; PRE at 10X, 20X antibody concentration; Table 20
T2 sequence (Q05513 1-592): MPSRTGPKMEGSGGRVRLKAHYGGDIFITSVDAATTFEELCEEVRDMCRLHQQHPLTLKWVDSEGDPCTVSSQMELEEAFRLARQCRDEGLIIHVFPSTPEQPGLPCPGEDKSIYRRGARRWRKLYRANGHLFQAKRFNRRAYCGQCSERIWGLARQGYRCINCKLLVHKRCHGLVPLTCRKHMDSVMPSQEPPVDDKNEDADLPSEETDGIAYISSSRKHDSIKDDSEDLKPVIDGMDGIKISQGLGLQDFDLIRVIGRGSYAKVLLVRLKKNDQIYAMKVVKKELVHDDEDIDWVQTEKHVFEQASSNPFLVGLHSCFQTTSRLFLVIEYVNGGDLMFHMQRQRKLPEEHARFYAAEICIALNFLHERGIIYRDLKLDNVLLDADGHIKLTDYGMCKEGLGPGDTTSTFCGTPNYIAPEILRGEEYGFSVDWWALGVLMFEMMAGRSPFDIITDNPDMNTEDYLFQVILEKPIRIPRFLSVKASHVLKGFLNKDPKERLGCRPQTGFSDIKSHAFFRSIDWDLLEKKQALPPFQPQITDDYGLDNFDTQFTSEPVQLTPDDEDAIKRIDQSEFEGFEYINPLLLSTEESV
Procedure: as §1, §2, §3

Row | Affinity for PKC isoform βI [1] | Affinity for PKC isoform ε [2] | Affinity for PKC isoform ζ [3] | affinity for PKC-βI ([1]; cell extracts) | Substance
1 | M | M/L | M/L |  | Ac-ISIGILNQADK-NH2 [PRE 10]
2 | — | — | M/H |  | Ac-KDAQNLI-NH2 [PRE 12]
3 | — | — | — |  | Ac-RDAQNLI-NH2 [PRE 13]
4 | H | — | — |  | Ac-RDAQNLIGISI-NH2 [PRE 11]
5 | M | M/L | M/L |  | Ac-isigilgnadk-NH2 [PRE 9]
6 |  | L |  |  | ILEDKGGDAQNLIGISI [PRE 8]

Continued, substance first:

Row | Substance | Affinity for PKC isoform βI [1] | Affinity for PKC isoform ε [2] | Affinity for PKC isoform ζ [3] | affinity for PKC-βI ([1]; cell extracts)
7 | Ac-AKGIQEVKGGDAQNLIGISI-NH2 [PRE 3] | L | L | — | 
8 | Ac-AKGIQEVKGGKDAQNLIGISI-NH2 [PRE 5] | H | L | L/H | 
9 | Ac-ISIGILQNADK-NH2 [PRE 7] | — | — | — | 
10 | Ac-KDANQLIGISI-NH2 [PRE 6] | H | M | — | 
11 | Ac-KDAQNLIGISI-NH2 [PRE 4, Ac-KDAQNLIGISI-NH2] | H | H/L | — | good affinity for PKC-βI
12 | RRKKGGKDFVVKR [PRE 1] | H |  | L | 
